Tests used:
Assay in all cases: cell-based or functional assay
[1] = target: HIV-1 Env of pseudovirus MGRM-F1-004 (HIV-1)
[2] = target: HIV-1 Env of pseudovirus MGRM-G-001 (clade G) (HIV-1)
[3] = target: HIV-1 Env of isolate TRO.11 (Acute), clade B, on pseudovirus (HIV-1)
[4] = target: HIV-1 Env of isolate MGRM-D-024 (clade D pseudovirus) (HIV-1)
[5] = target: HIV-1 IAVI-C3 envelope glycoprotein (Env) on pseudovirus (HIV-1)
[6] = target: HIV-1 Env of pseudovirus MGRM-G-013 (HIV-1, clade G isolate MGRM-G-013)
[7] = target: HIV-1 Env of pseudovirus MGRM-F1-023 (HIV-1)
[8] = target: HIV-1 Env of pseudovirus MGRM-AE-005 (clade CRF01_AE) (HIV-1)
[9] = target: HIV-1 envelope glycoprotein (Env) of isolate MGRM-A-012, clade A (HIV-1)
[10] = target: HIV-1 Env of pseudovirus MGRM-AG-012 (clade CRF_AG) (HIV-1)
[11] = target: aMLV envelope protein on pseudovirus (negative control)
[12] = target: HIV-1 Env of pseudovirus MGRM-G-004 (clade G) (HIV-1)
[13] = target: HIV-1 Env of pseudovirus MGRM-Chronic-B-011 (HIV-1)
[14] = target: HIV-1 envelope glycoprotein (Env) of isolate MGRM-A-007, clade A (HIV-1)
[15] = target: HIV-1 Env of pseudovirus MGRM-F1-015 (HIV-1)
[16] = target: HIV-1 Env of isolate MGRM-AE-008 (subtype AE) (HIV-1)
[17] = target: HIV-1 Env of isolate MGRM-AE-001 (subtype AE) (HIV-1)
[18] = target: HIV-1 envelope glycoprotein (Env) of isolate MGRM-C-022 (HIV-1)
[19] = target: HIV-1 NL43 Env (pseudovirus, clade B) (HIV-1)
[20] = target: HIV-1 Env of isolate 98CN006 (HIV-1)
[21] = target: HIV-1 APV6 Env (pseudovirus, clade B) (HIV-1)
[22] = target: HIV-1 94UG103 Env (pseudovirus, clade A) (HIV-1)
[23] = target: HIV-1 Env of isolate 92UG037 (HIV-1)
[24] = target: HIV-1 Env of isolate MG RM-D-005 (HIV-1)
[25] = target: HIV-1 Env of isolate MGRM-A-010 (subtype A) (HIV-1)
[26] = target: HIV-1 Env of isolate MG RM-D-003 (HIV-1)
[27] = target: HIV-1 Env of isolate 92WR024 (HIV-1)
[28] = target: HIV-1 MGRM-C-028 Env (pseudovirus, clade C) (HIV-1)
[29] = target: HIV-1 Env of isolate MGRM-AE-002 (subtype AE) (HIV-1)
[30] = target: HIV-1 envelope glycoprotein (Env) of isolate MGRM-C-028 (HIV-1)
[31] = target: HIV-1 envelope glycoprotein (Env) of isolate MGRM-C-024 (HIV-1)
[32] = target: HIV-1 APV17 Env (pseudovirus) (HIV-1)
[33] = target: HIV-1 envelope glycoprotein (Env) of isolate MGRM-C-014 (HIV-1)
[34] = target: HIV-1 Env of isolate 98IN022 (subtype C) (HIV-1)
[35] = target: HIV-1 Env of isolate MGRM-Chronic-B-020 (subtype B) (HIV-1)
[36] = target: HIV-1 Env of isolate MGRM-D-018 (clade D), on pseudovirus (HIV-1)
[37] = target: HIV-1 Env of isolate MGRM-Chronic-B-001 (subtype B) (HIV-1)

Sequence of 5329_C19 (PGT-136) (antibody) (VH): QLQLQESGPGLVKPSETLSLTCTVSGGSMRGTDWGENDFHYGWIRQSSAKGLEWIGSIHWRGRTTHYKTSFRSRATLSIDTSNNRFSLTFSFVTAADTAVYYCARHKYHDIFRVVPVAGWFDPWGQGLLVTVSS
Sequence of 5329_C19 (PGT-136) (antibody) (VL): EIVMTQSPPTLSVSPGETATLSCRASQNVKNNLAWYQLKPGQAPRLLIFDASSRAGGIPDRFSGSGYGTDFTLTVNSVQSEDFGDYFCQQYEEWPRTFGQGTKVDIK

Substance: b12 (antibody)
- IC50 (µg/ml), pseudovirus neutralization [1]: > 50 µg/mL
- IC50 [2]: > 50 µg/mL
- IC50 (µg/ml), pseudovirus neutralization [3]: > 50 µg/mL
- IC50 (µg/ml), pseudovirus neutralization [4]: 5.92 µg/mL
- IC50, pseudovirus neutralization [5]: 5 µg/mL
- IC50 (µg/ml), pseudovirus neutralization [6]: > 50 µg/mL
- IC50 (µg/ml), pseudovirus neutralization [7]: > 50 µg/mL
- IC50 [8]: 0.63 µg/mL
- IC50 (µg/ml), pseudovirus neutralization [9]: > 50 µg/mL
- IC50 [10]: 10.4 µg/mL
- IC90 (pseudovirus neutralization) [11]: > 50 µg/mL
- IC50 [12]: > 50 µg/mL
- IC50 (µg/ml), pseudovirus neutralization [13]: 2.11 µg/mL
- IC50 (µg/ml), pseudovirus neutralization [14]: > 50 µg/mL
- IC50 (µg/ml), pseudovirus neutralization [15]: > 50 µg/mL

Substance: 5329_C19 (PGT-136) (antibody)
- IC50 (µg/mL), pseudovirus neutralization [16]: > 50 µg/mL
- IC50 (µg/mL), pseudovirus neutralization [17]: > 50 µg/mL
- IC50 (µg/mL), pseudovirus neutralization [18]: > 50 µg/mL
- IC50 neutralization [19]: > 10 µg/mL
- IC50 (µg/mL), pseudovirus neutralization [20]: 0.406 µg/mL
- IC50 neutralization [21]: > 10 µg/mL
- IC50 neutralization [22]: > 10 µg/mL
- IC50 [23]: > 50 µg/mL
- IC50 (µg/mL), pseudovirus neutralization [24]: > 50 µg/mL
- IC50 (µg/mL), pseudovirus neutralization [25]: > 50 µg/mL
- IC50 (µg/mL), pseudovirus neutralization [26]: > 50 µg/mL
- IC50 [27]: > 50 µg/mL
- IC50 neutralization [28]: > 10 µg/mL
- IC50 (µg/mL), pseudovirus neutralization [29]: > 50 µg/mL
- IC50 (µg/mL), pseudovirus neutralization [30]: 33.7 µg/mL
- IC50 (µg/mL), pseudovirus neutralization [31]: > 50 µg/mL
- IC50 (neutralizing activity, pseudovirus) [32]: > 10 µg/mL
- IC50 (µg/mL), pseudovirus neutralization [33]: > 50 µg/mL
- IC50 neutralization [34]: 13.6 µg/mL
- IC50 neutralization [35]: > 50 µg/mL
- IC50, pseudovirus neutralization [36]: > 10 µg/mL
- IC50 neutralization [37]: > 50 µg/mL

Substance: 2F5 (antibody)
- IC50 (µg/ml), pseudovirus neutralization [1]: 4.31 µg/mL
- IC50 [2]: 4.1 µg/mL
- IC50 (µg/ml), pseudovirus neutralization [3]: > 50 µg/mL
- IC50 (µg/ml), pseudovirus neutralization [4]: > 50 µg/mL
- IC50, pseudovirus neutralization [5]: > 50 µg/mL
- IC50 (µg/ml), pseudovirus neutralization [6]: 0.59 µg/mL
- IC50 (µg/ml), pseudovirus neutralization [7]: 1.78 µg/mL
- IC50 [8]: 0.14 µg/mL
- IC50 (µg/ml), pseudovirus neutralization [9]: 2.36 µg/mL
- IC50 [10]: 0.33 µg/mL
- IC90 (pseudovirus neutralization) [11]: > 50 µg/mL
- IC50 [12]: > 50 µg/mL
- IC50 (µg/ml), pseudovirus neutralization [13]: 0.81 µg/mL
- IC50 (µg/ml), pseudovirus neutralization [14]: 16.3 µg/mL
- IC50 (µg/ml), pseudovirus neutralization [15]: 0.1 µg/mL

Substance: 2G12 (antibody)
- IC50 (µg/ml), pseudovirus neutralization [1]: > 50 µg/mL
- IC50 [2]: > 50 µg/mL
- IC50 (µg/ml), pseudovirus neutralization [3]: 0.29 µg/mL
- IC50 (µg/ml), pseudovirus neutralization [4]: > 50 µg/mL
- IC50, pseudovirus neutralization [5]: > 50 µg/mL
- IC50 (µg/ml), pseudovirus neutralization [6]: > 50 µg/mL
- IC50 (µg/ml), pseudovirus neutralization [7]: 9.23 µg/mL
- IC50 [8]: > 50 µg/mL
- IC50 (µg/ml), pseudovirus neutralization [9]: > 50 µg/mL
- IC50 [10]: 1.94 µg/mL
- IC90 (pseudovirus neutralization) [11]: > 50 µg/mL
- IC50 [12]: > 50 µg/mL
- IC50 (µg/ml), pseudovirus neutralization [13]: > 50 µg/mL
- IC50 (µg/ml), pseudovirus neutralization [14]: > 50 µg/mL
- IC50 (µg/ml), pseudovirus neutralization [15]: > 50 µg/mL

Substance: 1495_C14 (PGC14) (antibody)
- IC50 (µg/ml), pseudovirus neutralization [1]: > 50 µg/mL
- IC50 [2]: > 50 µg/mL
- IC50 (µg/ml), pseudovirus neutralization [3]: > 50 µg/mL
- IC50 (µg/ml), pseudovirus neutralization [4]: > 50 µg/mL
- IC50, pseudovirus neutralization [5]: > 50 µg/mL
- IC50 (µg/ml), pseudovirus neutralization [6]: > 50 µg/mL
- IC50 (µg/ml), pseudovirus neutralization [7]: > 50 µg/mL
- IC50 [8]: > 50 µg/mL
- IC50 (µg/ml), pseudovirus neutralization [9]: > 50 µg/mL
- IC50 [10]: > 50 µg/mL
- IC50 [12]: > 50 µg/mL
- IC50 (µg/ml), pseudovirus neutralization [13]: > 50 µg/mL
- IC50 (µg/ml), pseudovirus neutralization [14]: > 50 µg/mL
- IC50 (µg/ml), pseudovirus neutralization [15]: > 50 µg/mL
